Molecular target: T1, Sec61∆L7p (S. cerevisiae, UniProt P32915 1-480, amino acids 305–371 of wildtype Sec61p had been replaced by two amino acids …)
T1 construct: Sec61p, S. cerevisiae, lacking ER-lumenal loop 7 and the lumenal ends of TMDs 7 and 8; also called Sec61ΔL7p; Sec∆L7p; source: yeast KRY461 with sec61ΔL7pRS315 as sole copy of SEC61, in microsomes; solubilized in Triton-X100 or digitonin, or total protein reconstituted into proteoliposomes
T1 sequence (looked up): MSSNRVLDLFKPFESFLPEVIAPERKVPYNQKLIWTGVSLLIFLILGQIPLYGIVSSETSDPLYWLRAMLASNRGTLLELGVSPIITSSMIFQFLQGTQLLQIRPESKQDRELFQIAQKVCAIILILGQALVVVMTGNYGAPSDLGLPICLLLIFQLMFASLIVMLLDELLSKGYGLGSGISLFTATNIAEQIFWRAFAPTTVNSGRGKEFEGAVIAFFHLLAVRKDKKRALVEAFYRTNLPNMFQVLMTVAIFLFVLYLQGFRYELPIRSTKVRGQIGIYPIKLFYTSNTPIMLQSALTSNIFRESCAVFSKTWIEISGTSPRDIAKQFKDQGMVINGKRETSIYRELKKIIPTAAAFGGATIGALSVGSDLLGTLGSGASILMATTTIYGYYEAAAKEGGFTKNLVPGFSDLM
Experiment: cross-linking; intact microsomes in B88, pH 7.9, treated with DSS for 20 min at 20°C, quenched with ammonium acetate; SDS-PAGE and immunoblotting with anti-Sec61p or anti-Sss1p antibodies
Conditions: partners not purified

B1: Sss1p (natural protein, UniProt P35179 1-80, looked up)
chain: MARASEKGEEKKQSNNQVEKLVEAPVEFVREGTQFLAKCKKPDLKEYTKIVKAVGIGFIAVGIIGYAIKLIHIPIRYVIV
notes: Sss1p, small subunit of the trimeric Sec61 complex, yeast; source: endogenous, yeast microsomes
fold weaker crosslink than in wildtype membranes: ≥ 5 fold

From publication PMC3897919, “ERAD and protein import defects in a sec61 mutant lacking ER-lumenal loop 7” (BMC Cell Biology, 2013)
